B1: E3 ubiquitin-protein ligase RFWD3 (Homo sapiens), Q6PCD5 (parent)
chain: MAHEAMEYDVQVQLNHAEQQPAPAGMASSQGGPALLQPVPADVVSSQGVPSILQPAPAEVISSQATPPLLQPAPQLSVDLTEVEVLGEDTVENINPRTSEQHRQGSDGNHTIPASSLHSMTNFISGLQRLHGMLEFLRPSSSNHSVGPMRTRRRVSASRRARAGGSQRTDSARLRAPLDAYFQVSRTQPDLPATTYDSETRNPVSEELQVSSSSDSDSDSSAEYGGVVDQAEESGAVILEEQLAGVSAEQEVTCIDGGKTLPKQPSPQKSEPLLPSASMDEEEGDTCTICLEQWTNAGDHRLSALRCGHLFGYRCISTWLKGQVRKCPQCNKKARHSDIVVLYARTLRALDTSEQERMKSSLLKEQMLRKQAELESAQCRLQLQVLTDKCTRLQRRVQDLQKLTSHQSQNLQQPRGSQAWVLSCSPSSQGQHKHKYHFQKTFTVSQAGNCRIMAYCDALSCLVISQPSPQASFLPGFGVKMLSTANMKSSQYIPMHGKQIRGLAFSSYLRGLLLSASLDNTIKLTSLETNTVVQTYNAGRPVWSCCWCLDEANYIYAGLANGSILVYDVRNTSSHVQELVAQKARCPLVSLSYMPRAASAAFPYGGVLAGTLEDASFWEQKMDFSHWPHVLPLEPGGCIDFQTENSSRHCLVTYRPDKNHTTIRSVLMEMSYRLDDTGNPICSCQPVHTFFGGPTCKLLTKNAIFQSPENDGNILVCTGDEAANSALLWDAASGSLLQDLQTDQPVLDICPFEVNRNSYLATLTEKMVHIYKWE

Variants of: B1
Settings: with rfa2_human RPA2, P15927
Sequence of rfa2_human RPA2, P15927 (P15927 whole entry): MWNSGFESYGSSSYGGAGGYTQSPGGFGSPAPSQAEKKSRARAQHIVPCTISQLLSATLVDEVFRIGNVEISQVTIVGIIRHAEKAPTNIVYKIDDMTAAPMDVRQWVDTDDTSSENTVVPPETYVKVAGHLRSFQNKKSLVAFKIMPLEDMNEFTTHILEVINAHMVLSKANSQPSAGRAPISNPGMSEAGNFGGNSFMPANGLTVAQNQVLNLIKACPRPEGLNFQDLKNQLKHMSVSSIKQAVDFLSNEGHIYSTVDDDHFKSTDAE

Variant	effect of a mutation on the interaction
I639K	decreasing interaction strength

Variants of: B1
Settings: with rfa2_human RPA2, P15927
Remark: another data set of the same source

Variant	effect of a mutation on the interaction
I639K	disrupting interaction strength
